These results are taken from the nanobody polyreactivity screen of Harvey et al. (2022).

A short description of the series: yeast display, Sf9 membrane polyspecificity reagent, FACS + sequencing; frameworks hold sequencing errors. The procedure, abridged:
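A nanobody's polyreactivity label depends on the gate it was sorted from. Yeast display cells were stained with 10% biotinylated, detergent-solubilized Sf9 membrane reagent for 1 hour at 4 °C, enriched on streptavidin microbeads and sorted by FACS. The low and high (top ~1%) gates were set on anti-HA fluorescence for expression and streptavidin fluorescence for reagent binding.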
Turning to “QVQLVESGGGLVQAGGSLRLSCAASGFIFNRYAMGWYRQAPGKERELVADITGGSTYYADSVKGRFTISRDNAKNTVYLQMNSLKPEDTAVYYCAADVLRISTQLFRGPGFDSWGQGTQVTVSS”, the “polyreactivity (PSR sort gate)” value was “low polyreactivity”.
The same measure for “QVQLVESGGGLVQAGGSLRLSCAASGFIFNVYAMGWYRQAPGKERELVAAISQRGGRTYYADSVKGRFTISRDNAKNTVYLQMNSLKPEDTAVYYCKLFYPKHGYWGQGTQVTVSS”: “high polyreactivity”; for “QVQLVESGGGLVQAGGSLRLSCAASGFIFNYYLGWYRQAPGKEREWVAAISQSGDSTYYADSVKGRFTISRDNAKNTVYLQMNSQKPEDTAVYYCAAETSPDYRGVTYYYWGQGTQVTLSS”: “high polyreactivity”; for “QVQLVESGGGLVQAGGSLRLSCAASGFIFPAYAMGWYRPAPGKERELVAAISKSGGRTYYADSVKGRFTISRDNAKNTVYIQMKSLKPEYTAVYYCDARMYNYDTSSSFDYWGQGTQVTVSS”: “high polyreactivity”.
The same measure for “QVQLVESGGGLVQAGGSLRLSCAASGFIFPIYAMGWYRQAPGKERELVAAITSNGASTYYADSVKGRFTISRDNAKNTVYLQMNSLKPEDTAVYYCARDPSIRALEHDYWGQGTKVTVSS”: “high polyreactivity”; for “QVQLVESGGGLVQAGGSLRLSCAASGFIFPNNAMGWYRQAPGKERELVARISYGGGDTHYADSVKGRFTISRDTAKNTVYLQMNSLKPEDTAVYYCAVKDGQDDYWGQGTQVTVSS”: “low polyreactivity”; for “QVQLVESGGGLVQAGGSLRLSCAASGFIFPRNVMGWYRQAPGKERELVAAISRSGGSTYYADSVKGRITISRDNAKNTVYLQMNSLKPEDTAVYYCDKRTFYNGEYWGQGTQVTVSS”: “high polyreactivity”.
The same measure for “QVQLVESGGGLVQAGGSLRLSCAASGFIFPRYAMGWYRQAPGKERELVAAISYTGGSTYYADSVKGRFTISRDNAKNTVSLQMNSLKPEDTAVYYCYAYFLSQYQRGYRDDYWGQGTQVTVSS”: “high polyreactivity”; for “QVQLVESGGGLVQAGGSLRLSCAASGFIFPTNTMGWYRQAPGKEREFVARITRSGTNTYYADSVKGRFTISRDNAKNTVYLQMNSLKAEDTAVYYCARRGTSSYRRYWLDSASNMDYWGQGTQVTVSS”: “high polyreactivity”; for “QVQLVESGGGLVQAGGSLRLSCAASGFIFPTYAMGWYRQAPGKERELVAAISYRGGITSYADSVKGRFTISRDNAKNTVYLQMNSLKPEDTAVYYCAARGAWGYEYWGQGTQVTVSS”: “low polyreactivity”.
Turning to “QVQLVESGGGLVQAGGSLRLSCAASGFIFPVNAMGWSRQAPGKERELVAGITSSGGSTYYADSVKGRFTISRDNAKNTVYLQMNSRKPEDTAVYYCNAYIDALPVSYHFDYWGQGTQLTVSS”, the “polyreactivity (PSR sort gate)” value is reported as “low polyreactivity”.
Regarding “QVQLVESGGGLVQAGGSLRLSCAASGFIFPVYAMGWYRQAPGKERELVAAITDSGDSTYYADSVKGRFTISRDNAKNTVYLQMNSLKPEDTAVYYCAAQVQYPRWYRSGKYDYWGQGTQVTVSS”, the “polyreactivity (PSR sort gate)” value was “low polyreactivity”.
Consider “QVQLVESGGGLVQAGGSLRLSCAASGFIFPWYAMGWYRQAPGKERELVAAISWSGGSTYYADSVKWRFTISRDNAKNTVYLQMNSLKPEDTAVYYCNDLYGRPGYDYWGQGTQVTVSS”, for which the “polyreactivity (PSR sort gate)” value is “low polyreactivity”.
The same measure for “QVQLVESGGGLVQAGGSLRLSCAASGFIFPWYTRGWYRQAPGKERELVAVINQSGGSTYYADSVKGRFTISRDNAKNTVYLQMNSLKPEDTAVYYCAAKSYRGSVKLRWSERGYWGQGTQVTVSS”: “high polyreactivity”; for “QVQLVESGGGLVQAGGSLRLSCAASGFIFPYYAMGLYRQAPGKERELVAAITFSATRTYYADSVKGRFTISRDNAKNTVYLQMNSLKPEDTAVYYCKARGGVYGSYFEFNYWRQGTQVTVSS”: “low polyreactivity”; for “QVQLVESGGGLVQAGGSLRLSCAASGFIFPYYAMGWYRQAPGKEREFVAAITFSATRTYYADSVKGRFTISRDNAKNTVYLQMNSLKPEDTAVYYCNARGGVYGSYFEFNYWGQGTQVTVSS”: “low polyreactivity”.
Take “QVQLVESGGGLVQAGGSLRLSCAASGFIFPYYDMGWYRQAPGKEREFVAAITKSGGRTYYADSVKGRFTISRDNAKNTVYLQMNSLKPEDTAVYYCNADDPDYLVSYRYDYWGQGTQVTVSS”: the “polyreactivity (PSR sort gate)” value is given as “low polyreactivity”.
The same measure for “QVQLVESGGGLVQAGGSLRLSCAASGFIFPYYDMGWYRQAPGTERELVAAISWSGDSTYYADSVKGRFTISRDNAKNTVYLQMNSLKPEDTAVYYCNVRARYQRYYYWGQGTQVTVSS”: “high polyreactivity”.
With “QVQLVESGGGLVQAGGSLRLSCAASGFIFQEYVMGWYRQAPGKERELVAAISRSGGRTYYADSVKGRFTISRDNAKNTVYLQMNSLKPEDTAVYYCAATYTKSHGVRYYHWGQGTQVTVSS”, the “polyreactivity (PSR sort gate)” value is “high polyreactivity”.
For the sequence “QVQLVESGGGLVQAGGSLRLSCAASGFIFQGYAMGWYRQAHGKEREFVAAITTSGGTTYYADSVKGSFTISRDNAKNTVYLQKNSLKPEDTAVYYCAARGATVSTRIYGYWGQGPQVTVSS”, the “polyreactivity (PSR sort gate)” value is on record as “high polyreactivity”.
The same measure for “QVQLVESGGGLVQAGGSLRLSCAASGFIFQPYALGWYRQAPGKERELDASITLRGGSTYYADSVKGRFTISRDNAKNTVYLQMNSLKPEDTAVYYCAARIYQYWGGHYDYWGQGTQVTVSS”: “high polyreactivity”; for “QVQLVESGGGLVQAGGSLRLSCAASGFIFQPYAMGWYRPAPGKERELVAGITGSGGNTYYADSVKGRFTISRDNAKNTVYLQMNSLKPEDTAVYYCAARRHIFLLIIWSGRVDYWGQGTEVTVSS”: “low polyreactivity”; for “QVQLVESGGGLVQAGGSLRLSCAASGFIFQSYAMGWYRQAPGKERELVASISASGGSTYYADSVKGRFTISRDNAKNTVYLQMNSLKPEDTAVYYCAAGYWSYWSLRMDYWGQGTQVTVSS”: “high polyreactivity”.
Consider “QVQLVESGGGLVQAGGSLRLSCAASGFIFQVYAMGWYRQAPGKERELVASISSSGGSTYYADSVKGRFTISRDNAKNTVYLQMNSLKPEDTAVYYCAVEQRYRYWYRYRYKFLLDSDYWGQGTQVTVSS”, for which the “polyreactivity (PSR sort gate)” value is reported as “high polyreactivity”.
With “QVQLVESGGGLVQAGGSLRLSCAASGFIFQYNTMGWYRQAPGKERELVAVITRTGSTNYADSVKGRFTISRDNGKNTVYLQMNSLQPEDTAVYYCATSVYSRPRKPRYYYWGQGTQVTVSS”, the “polyreactivity (PSR sort gate)” value is “high polyreactivity”.
The same measure for “QVQLVESGGGLVQAGGSLRLSCAASGFIFQYYAMGWYRQAPGKERELVAAINRGGGTHYADSVKGRFTISRDNAKNTVYLQMNSLKPEDTAVYYCNKVYYWPGSRPSRYEYWGQGTQVTVSS”: “low polyreactivity”; for “QVQLVESGGGLVQAGGSLRLSCAASGFIFQYYAMGWYRQAPGKERELVAAISWRSTSTYYADSVKGRFTISRDNAKNTVYLQMNSLKPEDTAVYYCAASPGFSIGYEYWGQGTQVTVSS”: “low polyreactivity”.
The same measure for “QVQLVESGGGLVQAGGSLRLSCAASGFIFQYYAMGWYRQAPGKERELVAAITPSGTSTYYADSVKGRFTISRDNAKNTVYLQMNSLKPEDTAVYYCAAYYRYASDYWGQGTQVTVSS”: “low polyreactivity”; for “QVQLVESGGGLVQAGGSLRLSCAASGFIFRAYAMGWYRQAPGKERELVAAISGSGGSTYYADTVKGRFTISRDNAMNTVDLQMNSLKPEDTAVYYCNKYVGYYAYNYNYWGQGTQVTVSS”: “high polyreactivity”.
The same measure for “QVQLVESGGGLVQAGGSLRLSCAASGFIFRAYVMGWYRQAPGKERELVAAISYRGGSTNYADSVKGRFTISRDTAKNTVYLHMNSLKPEDTAVYYCAADQVHKREYDYWGQGTQVTVSS”: “low polyreactivity”; for “QVQLVESGGGLVQAGGSLRLSCAASGFIFRDYDMGWYRQAPGKERELVPAISWRGGTYYADSVKGRFTISRDNAKNTVYLQMNSLKPEDTAVYYCNATRYRLRPSGVRYKYNYWGQGTQVTVSS”: “low polyreactivity”.
For “QVQLVESGGGLVQAGGSLRLSCAASGFIFRFNALGWYRQAPGKERELVAAISGSGGITYYADSVKGRFTISRDNAKNTVYLQMNSLKPEDTAVYYCAAGTGKRSVRFDYWGQGTQVTVSS”, the “polyreactivity (PSR sort gate)” value is “high polyreactivity”.
The same measure for “QVQLVESGGGLVQAGGSLRLSCAASGFIFRFNAMGWYRQAPGKERELVAGITWSGGSTYYADSVKGRFTISRDNAKNTVYLQMNSLKPEDTAVYYCDADNPYLGRKFDYWGQGTQVTVSS”: “high polyreactivity”.
Take “QVQLVESGGGLVQAGGSLRLSCAASGFIFRGYAMGWYRQAPGKERELVAAINSGGSTNYADSVKGRFTISRDNAKNTVYLQMNSLKPEDTAVYYCAARVKTSYRYLRTYNYWGQGTQVTVSS”: the “polyreactivity (PSR sort gate)” value is “high polyreactivity”.
The same measure for “QVQLVESGGGLVQAGGSLRLSCAASGFIFRGYAMGWYRQAPGKERELVAAITSSGGDTYYADSVKGRFTISRDNAKNTVYLQMNSLKPEDSAVYYCAKRARRIGDVNMGSWGQGSQVTVSS”: “low polyreactivity”.
On to “QVQLVESGGGLVQAGGSLRLSCAASGFIFRHYAMGWYRQSPGKAREMVAVINWSGSSTYYADSVKGRFTISRDNEKNTVFLQMNSLKPEDTAVYYCAVRSLRVDKYGYWGLGTQVTVSS”, for which the “polyreactivity (PSR sort gate)” value was “high polyreactivity”.
The same measure for “QVQLVESGGGLVQAGGSLRLSCAASGFIFRLYAMGWYRQAPGKERELVAAISTGGGRTYYADSVKGRFTFSGDNAKNTVYLQMNSLKPEDTADYDCNTLVEPHYDYWGQGTQVTVSS”: “high polyreactivity”; for “QVQLVESGGGLVQAGGSLRLSCAASGFIFRLYAMGWYRQAPGKERELVAAITWSGGSTYYADSVKGRFTISRDNAKNTVYLQMNSLKPEDTAVYYCAAYATKNAFEYWGQGTQVTVSS”: “high polyreactivity”; for “QVQLVESGGGLVQAGGSLRLSCAASGFIFRNYAMGWYRQAPGKERELVAAIDSSGGSTYYADSVKGRFTISRDNAKNTVYLQMNSLKPEDTAVYYCAAESYYYQYEYWGQGTQVTVSS”: “high polyreactivity”.
Take “QVQLVESGGGLVQAGGSLRLSCAASGFIFRRNAMGWYRQAPGKERELVAAISAGGTSTYYADSVKGRFTISRDNAKNTVYLQMNSLKPEDTAVYYCNKAYYYDAEYDYWGQGTQVTVSS”: the “polyreactivity (PSR sort gate)” value is recorded as “high polyreactivity”.
For “QVQLVESGGGLVQAGGSLRLSCAASGFIFRRNAMGWYRQAPGKERELVAAISRTGGSTYYADCVKGRFTISRDNAKNTDYLQMNSLKPEDTAVYYCARYGLVYALGYWGQGTQVTVSS”, the “polyreactivity (PSR sort gate)” value is reported as “high polyreactivity”.
